{"source": "patent EP4803150A2", "about": "(Lyvgen Biopharma Holdings Limited, dated 2026)", "binders": {"B1": {"name": "Ly1963 (multi-specific antibody)", "chain 1": "QVQLVQSGAEVKKPGASVKVSCKASGYTFTSYVMHWVRQKPGQGLEWIGYINPYNEGTESTDKFKGRATMTSDKSTSTVYMELSSLRSEDTAVYYCASIYYGYEGTYFGVWGQGTLVTVSSASTKGPSVFPLAPSSKSTSGGTAALGCLVKDYFPEPVTVSWNSGALTSGVHTFPAVLQSSGLYSLSSVVTVPSSSLGTQTYICNVNHKPSNTKVDKKVEPKSCGGGGSGGGGSGGGGSGGGGSEVQLVESGGGLVQPGGSLRLSCAASGFTFSTYAMNWVRQAPGKGLEWVGRIRSKYNNYATYYADSVKGRFTISRDDSKNSLYLQMNSLKTEDTAVYYCVRHGNFGNSYVSWFAYWGQGTLVTVSSGGGGSDKTHTCPPCPAPEAAGPSVFLFPPKPKDTLMISRTPEVTCVVVDVSHEDPEVKFNWYVDGVEVHNAKTKPREEQYNSTYRVVSVLTVLHQDWLNGKEYKCKVSNKALPAPIEKTISKAKGQPREPQVYTLPPSREEMTKNQVSLWCLVKGFYPSDIAVEWESNGQPENNYKTTPPVLDSDGSFFLYSKLTVDKSRWQQGNVFSCSVMHEALHNHYTQKSLSLSPGGGGGSGGGGSGGGGSGGGGSQVQLVQSGAEVKKPGASVKVSCKASGYTFAGFEMHWVRQAPGQGLEWMGAIDPKTGGTDYNQKFKDRVTMTRDTSISTAYMELSRLRSDDTAVYYCARDLGYFDVWGQGTLVTVSS", "chain 2": "QVQLVQSGAEVKKPGASVKVSCKASGYTFTSYVMHWVRQKPGQGLEWIGYINPYNEGTESTDKFKGRATMTSDKSTSTVYMELSSLRSEDTAVYYCASIYYGYEGTYFGVWGQGTLVTVSSASTKGPSVFPLAPSSKSTSGGTAALGCLVKDYFPEPVTVSWNSGALTSGVHTFPAVLQSSGLYSLSSVVTVPSSSLGTQTYICNVNHKPSNTKVDKKVEPKSCGGGGSGGGGSGGGGSGGGGSQAVVTQEPSLTVSPGGTVTLTCRSSTGAVTTSNYANWVQQKPGQAPRGLIGGTNKRAPWTPARFSGSLLGGKAALTITGAQAEDEADYYCALWYSNLWVFGGGTKLTVLGGGGSDKTHTCPPCPAPEAAGPSVFLFPPKPKDTLMISRTPEVTCVVVDVSHEDPEVKFNWYVDGVEVHNAKTKPREEQYNSTYRVVSVLTVLHQDWLNGKEYKCKVSNKALPAPIEKTISKAKGQPREPQVYTLPPSREEMTKNQVSLSCAVKGFYPSDIAVEWESNGQPENNYKTTPPVLDSDGSFFLVSKLTVDKSRWQQGNVFSCSVMHEALHNHYTQKSLSLSPGGGGGSGGGGSGGGGSGGGGSDIQMTQSPSSLSASVGDRVTITCRASQDIRSNLNWYQQKPGGAVKLLIYYTSRLHSGVPSRFSGSGSGTDYTLTISSLQPEDFATYFCQQSEKLPRTFGGGTKVEIR", "chain 3": "EIVLTQSPATLSLSPGERATLSCRASSSVSYMHWYQQKPGQAPRPWIYATSNLASGIPARFSGSRSGTDYTLTISSLEPEDFAVYYCQQWSSNTLTFGGGTKVEIKRTVAAPSVFIFPPSDEQLKSGTASVVCLLNNFYPREAKVQWKVDNALQSGNSQESVTEQDSKDSTYSLSSTLTLSKADYEKHKVYACEVTHQGLSSPVTKSFNRGEC", "notes": "Trispecific B7H3/CD3/CD137"}, "B2": {"name": "Ly2128 (multi-specific antibody)", "chain 1": "QVQLVQSGAEVKKPGASVKVSCKASGYTFTSYVMHWVRQKPGQGLEWIGYINPYNEGTESTDKFKGRATMTSDKSTSTVYMELSSLRSEDTAVYYCASIYYGYEGTYFGVWGQGTLVTVSSASTKGPSVFPLAPSSKSTSGGTAALGCLVKDYFPEPVTVSWNSGALTSGVHTFPAVLQSSGLYSLSSVVTVPSSSLGTQTYICNVNHKPSNTKVDKKVEPKSCGGGGSGGGGSGGGGSGGGGSEVQLVESGGGLVQPGGSLRLSCAASGFTFSTYAMNWVRQAPGKGLEWVGRIRSKYNNYATYYADSVKGRFTISRDDSKNSLYLQMNSLKTEDTAVYYCVRHGNFGNSYVSWFAYWGQGTLVTVSSGGGGSDKTHTCPPCPAPEAAGPSVFLFPPKPKDTLMISRTPEVTCVVVDVSHEDPEVKFNWYVDGVEVHNAKTKPREEQYNSTYRVVSVLTVLHQDWLNGKEYKCKVSNKALPAPIEKTISKAKGQPREPQVYTLPPSREEMTKNQVSLWCLVKGFYPSDIAVEWESNGQPENNYKTTPPVLDSDGSFFLYSKLTVDKSRWQQGNVFSCSVMHEALHNHYTQKSLSLSPGGGGGSGGGGSGGGGSGGGGSQVQLVQSGAEVKKPGASVKVSCKASGYTFTSYYIHWVRQAPGQGLEWIGCIYPGNVNTNYNEKFKDRATLTVDTSISTAYMELSRLRSDDTAVYFCTRSHYGLDWNFDVWGQGTTVTVSS", "chain 2": "not shown", "chain 3": "B1 chain 3", "notes": "Tri-specific B7H3/CD3/CD28"}, "B3": {"name": "Ly1965 (bispecific antibody)", "chain 1": "QVQLVQSGAEVKKPGASVKVSCKASGYTFTSYVMHWVRQKPGQGLEWIGYINPYNEGTESTDKFKGRATMTSDKSTSTVYMELSSLRSEDTAVYYCASIYYGYEGTYFGVWGQGTLVTVSSASTKGPSVFPLAPSSKSTSGGTAALGCLVKDYFPEPVTVSWNSGALTSGVHTFPAVLQSSGLYSLSSVVTVPSSSLGTQTYICNVNHKPSNTKVDKKVEPKSCGGGGSGGGGSGGGGSGGGGSEVQLVESGGGLVQPGGSLRLSCAASGFTFSTYAMNWVRQAPGKGLEWVGRIRSKYNNYATYYADSVKGRFTISRDDSKNSLYLQMNSLKTEDTAVYYCVRHGNFGNSYVSWFAYWGQGTLVTVSSGGGGSDKTHTCPPCPAPEAAGPSVFLFPPKPKDTLMISRTPEVTCVVVDVSHEDPEVKFNWYVDGVEVHNAKTKPREEQYNSTYRVVSVLTVLHQDWLNGKEYKCKVSNKALPAPIEKTISKAKGQPREPQVYTLPPSREEMTKNQVSLWCLVKGFYPSDIAVEWESNGQPENNYKTTPPVLDSDGSFFLYSKLTVDKSRWQQGNVFSCSVMHEALHNHYTQKSLSLSPG", "chain 2": "QVQLVQSGAEVKKPGASVKVSCKASGYTFTSYVMHWVRQKPGQGLEWIGYINPYNEGTESTDKFKGRATMTSDKSTSTVYMELSSLRSEDTAVYYCASIYYGYEGTYFGVWGQGTLVTVSSASTKGPSVFPLAPSSKSTSGGTAALGCLVKDYFPEPVTVSWNSGALTSGVHTFPAVLQSSGLYSLSSVVTVPSSSLGTQTYICNVNHKPSNTKVDKKVEPKSCGGGGSGGGGSGGGGSGGGGSQAVVTQEPSLTVSPGGTVTLTCRSSTGAVTTSNYANWVQQKPGQAPRGLIGGTNKRAPWTPARFSGSLLGGKAALTITGAQAEDEADYYCALWYSNLWVFGGGTKLTVLGGGGSDKTHTCPPCPAPEAAGPSVFLFPPKPKDTLMISRTPEVTCVVVDVSHEDPEVKFNWYVDGVEVHNAKTKPREEQYNSTYRVVSVLTVLHQDWLNGKEYKCKVSNKALPAPIEKTISKAKGQPREPQVYTLPPSREEMTKNQVSLSCAVKGFYPSDIAVEWESNGQPENNYKTTPPVLDSDGSFFLVSKLTVDKSRWQQGNVFSCSVMHEALHNRFTQKSLSLSPG", "chain 3": "B1 chain 3", "notes": "B7H3/CD3"}, "B4": {"name": "Anti-CD3 Ly305 (antibody, V domains shown)", "VH": "EVQLVESGGGLVQPGGSLRLSCAASGFTFSTYAMNWVRQAPGKGLEWVGRIRSKYNNYATYYADSVKGRFTISRDDSKNSLYLQMNSLKTEDTAVYYCVRHGNFGNSYVSWFAYWGQGTLVTVSS", "VL": "QAVVTQEPSLTVSPGGTVTLTCRSSTGAVTTSNYANWVQQKPGQAPRGLIGGTNKRAPWTPARFSGSLLGGKAALTITGAQAEDEADYYCALWYSNLWVFGGGTKLTVL", "notes": "Parent mAb; also called CD3 mAb Ly305"}, "B5": {"name": "Ly2278 (bispecific antibody)", "chain 1": "QVQLQQSGAELVRPGSSVKISCKASGYAFSSYWMNWVKQRPGQGLEWIGQIWPGDGDTNYNGKFKGKATLTADESSSTAYMQLSSLASEDSAVYFCARRETTTVGRYYYAMDYWGQGTTVTVSSASTKGPSVFPLAPSSKSTSGGTAALGCLVKDYFPEPVTVSWNSGALTSGVHTFPAVLQSSGLYSLSSVVTVPSSSLGTQTYICNVNHKPSNTKVDKKVEPKSCGGGGSGGGGSGGGGSGGGGSEVQLVESGGGLVQPGGSLRLSCAASGFTFSTYAMNWVRQAPGKGLEWVGRIRSKYNNYATYYADSVKGRFTISRDDSKNSLYLQMNSLKTEDTAVYYCVRHGNFGNSYVSWFAYWGQGTLVTVSSGGGGSDKTHTCPPCPAPEAAGPSVFLFPPKPKDTLMISRTPEVTCVVVDVSHEDPEVKFNWYVDGVEVHNAKTKPREEQYNSTYRVVSVLTVLHQDWLNGKEYKCKVSNKALPAPIEKTISKAKGQPREPQVYTLPPSREEMTKNQVSLWCLVKGFYPSDIAVEWESNGQPENNYKTTPPVLDSDGSFFLYSKLTVDKSRWQQGNVFSCSVMHEALHNHYTQKSLSLSPG", "chain 2": "QVQLQQSGAELVRPGSSVKISCKASGYAFSSYWMNWVKQRPGQGLEWIGQIWPGDGDTNYNGKFKGKATLTADESSSTAYMQLSSLASEDSAVYFCARRETTTVGRYYYAMDYWGQGTTVTVSSASTKGPSVFPLAPSSKSTSGGTAALGCLVKDYFPEPVTVSWNSGALTSGVHTFPAVLQSSGLYSLSSVVTVPSSSLGTQTYICNVNHKPSNTKVDKKVEPKSCGGGGSGGGGSGGGGSGGGGSQAVVTQEPSLTVSPGGTVTLTCRSSTGAVTTSNYANWVQQKPGQAPRGLIGGTNKRAPWTPARFSGSLLGGKAALTITGAQAEDEADYYCALWYSNLWVFGGGTKLTVLGGGGSDKTHTCPPCPAPEAAGPSVFLFPPKPKDTLMISRTPEVTCVVVDVSHEDPEVKFNWYVDGVEVHNAKTKPREEQYNSTYRVVSVLTVLHQDWLNGKEYKCKVSNKALPAPIEKTISKAKGQPREPQVYTLPPSREEMTKNQVSLSCAVKGFYPSDIAVEWESNGQPENNYKTTPPVLDSDGSFFLVSKLTVDKSRWQQGNVFSCSVMHEALHNRFTQKSLSLSPG", "chain 3": "not shown", "notes": "CD19/CD3"}}}
{"molecular_target": "T1, CD3 (human)", "T1 chain": "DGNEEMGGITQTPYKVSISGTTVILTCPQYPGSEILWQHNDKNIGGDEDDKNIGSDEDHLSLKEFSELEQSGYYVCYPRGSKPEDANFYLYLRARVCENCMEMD", "assay": "CD3 binding as in Example 2 (ELISA or FCM)", "units": {"EC50": "µg/mL"}}
{"binder": "B1", "EC50": 0.74}
{"binder": "B2", "EC50": 1.08}
{"binder": "B3", "EC50": 0.419}
{"binder": "B4", "EC50": 0.03}
{"binder": "B5", "EC50": 1.46}
